Test results as given in patent US20190359693A1 (Janssen / Centocor, published 2019).
Changes are numbered by the printed parent chain.

B1: SD3049 (VHH)
VHH: EVQLVESGGGLVQPGGSLRLSCAASGLSLDTYAMSWFRQAPGKEREGVSCISSGHGMTYYADSVKGRFTISRDNSKNTLYLQMNSLQPEDTARYYCATESRYYCSDNWPAPQRYIYWGQGTQVTVSS
B2: SD3092 (VHH)
VHH: B1 VHH with A24I, M34V, S35G, R72T, Q87R, P88A, R93V, Q122L
B3: SD3075 (VHH)
VHH: B1 VHH with M34V, S35G, M57I, R72T, Q87R, P88A, R93V, Q122L
B4: SD3104 (VHH)
VHH: B1 VHH with A24I, M34V, S35G, M57N, R72T, Q87R, P88A, R93V, Q122L
B5: SD3051 (VHH)
VHH: B1 VHH with M57I
B6: SD3053 (VHH)
VHH: B1 VHH with M57F
B7: SD3076 (VHH)
VHH: B1 VHH with M34V, S35G, M57L, R72T, Q87R, P88A, R93V, Q122L
B8: SD3102 (VHH)
VHH: B1 VHH with A24I, M34V, S35G, M57Q, R72T, Q87R, P88A, R93V, Q122L
B9: SD3100 (VHH)
VHH: B1 VHH with A24I, M34V, S35G, M57A, R72T, Q87R, P88A, R93V, Q122L
B10: SD3052 (VHH)
VHH: B1 VHH with M57L
B11: SD3101 (VHH)
VHH: B1 VHH with A24I, M34V, S35G, M57S, R72T, Q87R, P88A, R93V, Q122L
B12: SD3103 (VHH)
VHH: B1 VHH with A24I, M34V, S35G, M57D, R72T, Q87R, P88A, R93V, Q122L
B13: SD1083 (VHH)
VHH: EVQLVESGGGLVQPGGSLRLSCAATGFTLENKAIGWFRQTPGSEREGVLCISKSGSWTYYTDSMRGRFTISRDNAENTVYLQMDSLKPEDTAVYYCATTTAGGGLCWDGTTFSRLASSWGQGTQVTVSS
B14: SD3007 (VHH)
VHH: EVQLLESGGGLVQPGGSLRLSCAASGFTLENKAIGWFRQAPGKEREGVSCISKSGSWTYYADSVKGRFTISRDNSKNTVYLQMNSLRAEDTAVYYCATTTAGGGLCWDGTTFSRLASSWGQGTQVTVSS
B15: SD3012 (VHH)
VHH: B14 VHH with S49L, A88P
B16: SD3011 (VHH)
VHH: B14 VHH with S49L
B17: SD3087 (VHH)
VHH: B14 VHH with S49L, A88P, Q124L
B18: SD3009 (VHH)
VHH: B14 VHH with I34M, G35S, S49L, V79L
B19: SD3010 (VHH)
VHH: B14 VHH with S49L, V79L
B20: SD3008 (VHH)
VHH: B14 VHH with A88P
B21: SD3088 (VHH)
VHH: B14 VHH with S49L, V79L, Q124L
B22: SD1086 (VHH)
VHH: EVQLVESGGGLVQAGGSLRLSCTASGSISSIDYMRWYRQYPGKHRELVATITSGGAADSRDSVKGRFTVSRGNAANTMYLQMNNLKPEDTAVYYCNAYGLEIGAHWGRGTQVTVSS
B23: MD1209 (VHH)
chain: EVQLVESGGGLVQAGGSLKLSCAASGRTYAMGWFRQAPGKEREFVAHINALGTRTYYSDSVKGRFTISRDNAKNTEYLEMNNLKPEDTAVYYCTAQGQWRAAPVAVAAEYEFWGQGTQVTVSSAAAGGGGSGGGGSGGGGSGGGGSGGGGSGGGGSGGGGSEVQLVESGGGLVQAGGSLKLSCAASGRTYAMGWFRQAPGKEREFVAHINALGTRTYYSDSVKGRFTISRDNAKNTEYLEMNNLKPEDTAVYYCTAQGQWRAAPVAVAAEYEFWGQGTQVTVSS
B24: SD1087 (VHH)
VHH: EVQLVESGGGLVQPGGSLRLSCVISGLSLDTYAVGWFRQAPGKEREGITCISSGHGMTYYADSVKGRFTVSTDNAKNTVYLQMNGLQPEDTARYYCATESRYYCSDNWPAPQRYIYWGQGTQVTVSS
B25: SD3055 (VHH)
VHH: B1 VHH with V48I, S49T, M57L
B26: SD3050 (VHH)
VHH: B1 VHH with V48I, S49T
B27: SD3073 (VHH)
VHH: B1 VHH with A24I, M34V, S35G, I70V, R72T, Q87R, P88A, R93V, Q122L
B28: SD3093 (VHH)
VHH: B1 VHH with A24I, M34V, S35G, R72T, L79V, Q87R, P88A, R93V, Q122L
B29: SD3054 (VHH)
VHH: B1 VHH with V48I, S49T, M57I
B30: SD3056 (VHH)
VHH: B1 VHH with V48I, S49T, M57F
B31: SD3074 (VHH)
VHH: B24 VHH with V23A, V70I, A75S, V79L, G85S, Q87R, P88A, R93V, Q122L
B32: SD3069 (VHH)
VHH: B24 VHH with V23A, A75S, V79L, G85S, Q87R, P88A, R93V, Q122L
B33: SD3072 (VHH)
VHH: B24 VHH with V23A, I24A, A75S, V79L, G85S, Q87R, P88A, R93V, Q122L
B34: SD3071 (VHH)
VHH: B24 VHH with V23A, M57L, A75S, V79L, G85S, Q87R, P88A, R93V, Q122L
B35: SD3070 (VHH)
VHH: B24 VHH with V23A, M57I, A75S, V79L, G85S, Q87R, P88A, R93V, Q122L
B36: MD1212 (VHH)
chain: EVQLVESGGGLVQPGGSLRLSCAVSISIFDIYAMDWYRQAPGKQRDLVATSFRDGSTNYADSVKGRFTISRDNAKNTLYLQMNSLKPEDTAVYLCHVSLYRDPLGVAGGMGVYWGKGALVTVSSAAAGGGGSGGGGSGGGGSGGGGSGGGGSGGGGSGGGGSEVQLVESGGGLVQPGGSLRLSCAVSISIFDIYAMDWYRQAPGKQRDLVATSFRDGSTNYADSVKGRFTISRDNAKNTLYLQMNSLKPEDTAVYLCHVSLYRDPLGVAGGMGVYWGKGALVTVSS
B37: SD1084 (VHH)
VHH: EVQLVESGGGLVQPGGSLKLSCAASGFTFSTSWMYWLRQAPGKGLEWVSVINTDGGTYYADSVKDRFTISRDNAKDTLYLQMSSLKSEDTAVYYCAKDWGGPEPTRGQGTQVTVSS
B38: SD3004 (VHH)
VHH: B37 VHH with K19R, D65G, A74S, S83N, K86R, S87A
B39: SD3001 (VHH)
VHH: B37 VHH with K19R, Y35S, D65G, A74S, D76N, S83N, K86R, S87A
B40: SD3086 (VHH)
VHH: B37 VHH with K19R, L37V, D65G, A74S, D76N, S83N, K86R, S87A, Q111L
B41: SD3085 (VHH)
VHH: B37 VHH with K19R, D65G, A74S, D76N, S83N, K86R, S87A, Q111L
B42: SD3002 (VHH)
VHH: B37 VHH with K19R, D65G, A74S, D76N, S83N, K86R, S87A
B43: SD3003 (VHH)
VHH: B37 VHH with K19R, Y35S, D65G, A74S, S83N, K86R, S87A
B44: SD1049 (VHH)
VHH: EVQLVESGGGLVQAGGSLRLSCAASGRTLSLYSVGWFRQAPGKEREFVATIGWNSGRTFYVDSMKGRFTISRDNAKNTVYLQMNDLKVEDTAVYYCAAAKGPLRLSNQADYWGQGTQVTVSS

Assays:
[1] = target: hemagglutinin (HA) of influenza B/Brisbane/60/08 (Victoria) (influenza B virus); assay: cell-based or functional assay
[2] = target: HA of B/Harbin/7/94 (Yamagata) (influenza B virus); assay: cell-based or functional assay
[3] = target: HA of B/Malaysia/2506/04 (Victoria) (influenza B virus); assay: cell-based or functional assay
[4] = target: recombinant HA of H1N1 A/New Caledonia/20/1999 (influenza A virus, UniProt Q289M7 18-565); assay: biolayer interferometry (Octet), steady-state fit, geometric mean
[5] = target: hemagglutinin (HA) of influenza virus H1N1 A/Puerto Rico/8/34-MA (influenza A virus); assay: cell-based or functional assay
[6] = target: hemagglutinin (HA) of influenza virus H5N1 A/Vietnam/1194/04 (influenza A virus); assay: cell-based or functional assay
[7] = target: hemagglutinin (HA) of influenza virus H1N1 A/California/07/09 (influenza A virus); assay: cell-based or functional assay
[8] = target: hemagglutinin (HA) of influenza virus H3N2 A/Wisconsin/67/05 (influenza A virus); assay: cell-based or functional assay
HA of H3N2 A/HK/1/68-MA = HA of H3N2 A/HK/1/68-MA (influenza A virus); assay: cell-based or functional assay
[9] = target: HA of H1N1 A/Puerto Rico/8/34-MA (influenza A virus); assay: cell-based or functional assay

Binder	VNA IC50 [1] [nM]	other results
B1	> 1000	
B2	51	
B3	> 1000	
B4	> 1000	
B5	> 1000	
B6	> 1000	
B7	> 1000	
B8	> 1000	
B9	> 1000	
B10	> 1000	
B11	> 1000	
B12	> 1000	
B13	174	
B14	> 1000	
B15	59	
B16	53	
B17	32	
B18	194	
B19	149	
B20	> 1000	
B21	101	
B22		VNA titer [2]: > 1000 nM; VNA titer [3]: > 1000 nM

Binder	VNA IC50 [1] [nM]	other results
B23		Kd [4]: 1.9 nM; neutralization titer [5]: 221 nM; neutralization titer [6]: < 1000 nM; neutralization titer [7]: 10.1 nM; neutralization titer [8]: 109 nM
B24	34	
B25	> 1000	
B26	> 1000	
B27	28	
B28	32	
B29	> 1000	
B30	> 1000	
B31	36	
B32	56	
B33	160	
B34	> 1000	
B35	> 1000	
B36		Kd [4]: 1.4 nM; neutralization titer [5]: 11.7 nM; neutralization titer [6]: 14.8 nM; neutralization titer [7]: 3.7 nM; neutralization titer [8]: 49.5 nM
B37	12	
B38	5	
B39	101	
B40	40	
B41	12	
B42	5	
B43	101	
B44		VNA titer (HA of H3N2 A/HK/1/68-MA): 76.1 nM; VNA titer [9]: > 1000 nM
